Where a chain is given by its changes, count along the chain named. In names and notes the source's numbering stands. Entries after “also recorded” stand apart in the source; their conditions may differ.
Key:
Format in all cases: biochemical
[1] = DMAPP assay of site evaluation library (SEL) lysates with ELISA protein quantitation: specific activity ranked as performance index; conditions: for isoprene synthase activity of variants relative to parent, in words: SEL analysis of P. alba IspS; for performance index: primary SEL screen, activity on DMAPP per unit weight relative to the parental molecule (parent = 1)
Description: 1. Prepared Patch Plates from Glycerol Stock Plates. Using a V&S 96 pin Replication Tool, cultures were patched onto a LB Agar 35 CMP/50 Kan large patch plates from overnight glycerol stock plates. Plates were incubated at 30° C. overnight for 20 to 24 hr. Cultures can be stored at 4° C. for up to a week.
2. Prepared Overnight Growth Plates. 500 mL of LB 35 CMP/50 Kan media were prepared. 300 μL/well of LB 35 CMP/50 Kan media were dispensed into deep 96 well plates (VWR). Using a V&S Replication Tool, the patch inoculum was transferred into deep 96 well plate by touching the tool pins to respective patch and using a circular motion to coat the pins with inoculum. The media was inoculated by dipping the tool then shaking the pin within the well. The overnight growth plates were sealed using a Breathe-Easier Sealing Membrane (Diversified Biotech). The plates were incubated in a Vertiga Shaking Incubator at 30° C. with shaking at 800 rpm overnight for 16 to 18 hr.
3. Prepared Day Growth Plate. Deep 96 well plates were prepared by dispensing 588 μL/well of LB 35 CMP/50 Kan media. Overnight growth plates were removed from the incubator. Overnight cultures were diluted 50-fold and 12 μL of overnight culture were transferred to day growth plates containing 588 μL/well of LB media containing antiobiotics. Overnight growth plates were sealed with new Breathe-Easier Sealing Membranes. Cultures were incubated at 30° C. and 800 rpm for 2.5 hr. Frozen 12 mM IPTG (Sigma) vials were removed from −20° C. and placed in a hood to thaw.
4. OD600 Plate Read of Overnight, Induction, and Harvest. 150 μL 1×PBS were dispensed into 96 well Costar Read Plates (#9017). 50 μL of culture samples were transferred to Read Plates. The OD600 reading was recorded using a Spectramax Plate Reader (Molecular Devices).
5. Induction. Electronic multi-channel pipettors were prepared to dispense 4×20 μL/well of IPTG (if 4× replicates). The multi-dispense option in the electronic pipettor was adjusted if more replicates was necessary. Thawed 12 mM IPTG was poured into 50 mL or 100 mL sterile reservoirs. 20 μL/well of IPTG into each 600 μL/well culture. Overnight growth plates were resealed. Cultures were incubated at 30° C. and 800 rpm for 4 hr. OD600 readings of plates were recorded according instructions above.
6. Harvest. 400 μL of induced culture were transferred to 800 μL Grenier storage plates. Plates were centrifuged at 3300 rpm for 20 min at 2° to 8° C. in a low speed benchtop centrifuge. Supernatants were discarded, pellets should stay in the conical bottom well. Residual supernatants were slapped out onto a paper towel on the benchtop. Plates were sealed with an aluminum foil membrane (Beckman-Coulter). Plates were covered with a plastic plate lid if available. Storage plates were labeled accordingly and stored frozen at −80° C.
Plates containing induced cell pellets were removed from the −80° C. freezer and allowed to thaw on the benchtop for 30 minutes prior to lysis. 200 μl of lysis buffer (50 mM Tris pH 8, 25 mM MgCl2, 74 μg/ml DNase I, 250 U/ml lysozyme, 0.1% Tween 20, 0.5 mM PMSF) was added to each pellet, and plates were incubated on an Eppendorf Thermomixer at 25° C. for 30 minutes at 1200 rpm. After lysis, plates were centrifuged at 3450 rpm for 15 minutes at 4° C. Supernatants were then removed and diluted 10-fold prior to DMAPP assay. 80 μl of the diluted supernatant was added to 20 μl of the DMAPP working stock (20 mM DMAPP in 0.1 M Phosphate Buffer pH 8.2, DMAPP triammonium salt, Cayman chemicals) in a Zinsser glass block. Blocks were then sealed with aluminum sealing membranes, and incubated in Thermomixers at 25° C. for 30 minutes at 450 rpm. Reactions were stopped by incubating blocks on Thermomixers at 70° C. for 12 minutes at 450 rpm. GC-MS was then used for headspace measurements to calculate the amount of isoprene produced by each lysates.
Headspace Assay. […]

[2] = Specific activity measurement of purified isoprene synthase variants (4 mM DMAPP, 30 C, GC-MS headspace); conditions: for S.A. / Variant S.A./WT S.A.: 50 mM NaCl, 50 mM Tris pH = 8, 30° C.; for Variant S.A./WT S.A.: ratio to WT; for specific activity compared to WT isoprene synthase, in words: 30 C, purified enzyme
Description: 1. Initial Purification—Resuspend the pellet in 3 ml of fresh lysis buffer. Break cells by passing them through the French Press using the small cylinder. Centrifuge samples for 1 hour at 30,000×G and collect the supernatant. Retain pellet in order to test for presence of insoluble protein. Pre equilibrate 0.5 mL Ni Sepharose 6 Fast Flow resin (Amersham) in a 20 ml disposable column with 10 mL of Ni wash buffer. Add protein to column and shake for 60 min at 4 C to bind protein. Elute protein with 2.5 mL Ni elution buffer.
2. Buffer Exchange—Equilibrate a PD-10 column (GE Healthcare) with 25 mL of PD-10 buffer. Load protein on to column and elute with 3.5 mL of PD-10 buffer.
10 uL of purified enzyme was incubated with 4 mM DMAPP, 50 mM MgCl2 in a buffer containing 50 mM Tris and 50 mM NaCl (pH=8) to a final volume of 100 uL for 15 min. at 30 C in gas tight 2 mL vials. Reactions were terminated with the addition of 100 uL of […] EDTA, pH=8. Samples were analyzed by GC-MS to determine the concentration of isoprene in the headspace of the vials. All specific activity measurements were performed in triplicate.
(§1) Protein concentration was determined by measuring the absorbance of each protein solution at 280 nm on a Helwlett Pachard 8453 UV-Vis spectrophotometer and converting the absorbance to protein concentration using the extinction coefficient as determined on the Expasy website (Gasteiger E., Hoogland C., Gattiker A., Duvaud S., Wilkins M. R., Appel R. D., Bairoch A.; Protein Identification and Analysis Tools on the ExPASy Server; (In) John M. Walker (ed): The Proteomics Protocols Handbook, Humana Press (2005). pp. 571-607). The protein concentrations of isoprene synthase variants assayed for KM and kcat determination were verified by comparative gel electrophoresis of a dilution series of each protein (FIG. 61).

[3] = kcat, KM and Ki determination, rate vs [DMAPP], fit to uncompetitive substrate inhibition; conditions: for KM compared to WT isoprene synthase, in words / rate profile vs [DMAPP] / Km / kcat: 1.25 to 20 mM DMAPP, 30 C; for Km / kcat / Ki: average of three trials ± one standard deviation; for kcat: in s^-1 (unit assumed); for Ki: uncompetitive substrate inhibition by DMAPP, read-out: KiDMAPP
Description: 10 uL of purified enzyme was incubated with DMAPP at concentrations ranging from 1.25 to 20 mM DMAPP in a buffer containing 50 mM Tris, 50 mM MgCl2 and 50 mM NaCl (pH=8) to a final volume of 100 uL for 15 min. at 30 C in gas tight 2 mL vials. Reactions were terminated with the addition of 100 uL of 250 mM EDTA, pH=8. Samples were analyzed by GC-MS to determine the concentration of isoprene in the headspace of the vials. Data were analyzed using Kaleidagraph and fit to following equation for uncompetitive substrate inhibition: rate/E=kcat*S/(KM+S*(1+S/Ki)). All kinetic assays were performed in triplicate.
as §1

B1: A453N: P. alba IspS variant A453N; pDW99, strain DW397, SEQ ID NO: 65 (protein)
chain: MEARRSANYEPNSWDYDYLLSSDTDESIEVYKDKAKKLEAEVRREINNEKAEFLTLLELIDNVQRLGLGYRFESDIRGALDRFVSSGGFDAVTKTSLHGTALSFRLLRQHGFEVSQEAFSGFKDQNGNFLENLKEDIKAILSLYEASFLALEGENILDEAKVFAISHLKELSEEKIGKELAEQVNHALELPLHRRTQRLEAVWSIEAYRKKEDANQVLLELAILDYNMIQSVYQRDLRETSRWWRRVGLATKLHFARDRLIESFYWAVGVAFEPQYSDCRNSVAKMFSFVTIIDDIYDVYGTLDELELFTDAVERWDVNAINDLPDYMKLCFLALYNTINEIAYDNLKDKGENILPYLTKAWADLCNAFLQEAKWLYNKSTPTFDDYFGNAWKSSSGPLQLVFAYFAVVQNIKKEEIENLQKYHDTISRPSHIFRLCNDLASASAEIARGETNNSVSCYMRTKGISEELATESVMNLIDETWKKMNKEKLGGSLFAKPFVETAINLARQSHCTYHNGDAHTSPDELTRKRVLSVITEPILPFERENLYFQGLEHHHHHH
With B1 the “isoprene synthase activity of variants relative to parent, in words” value [1] was “improved activity; also recorded: high performing”, the performance index [1] was 2.99 and the S.A. [2] was 170 ± 30 nmol/mg/min. For the same molecule, the “Variant S.A./WT S.A.” value [2] was 0.4.

B2: T536C: P. alba IspS variant T536C; pDW102, strain DW400, SEQ ID NO: 71 (protein)
chain: B1 chain with N453A, T536C
With B2 the “isoprene synthase activity of variants relative to parent, in words” value [1] was “improved isoprene synthase activity; also recorded: high performing”, the performance index [1] was 1.48 and the S.A. [2] was 430 ± 10 nmol/mg/min. For the same molecule, the “Variant S.A./WT S.A.” value [2] was 0.9.

B3: SP: P. alba MEA G491S L494P (+) TEV; pDW110, SEQ ID NO: 87 (protein)
chain: B1 chain with N453A, G491S, L494P
modifications: TEV site
In the case of B3, the “KM compared to WT isoprene synthase, in words” value [3] is reported as “less than the KM of the WT”, the “rate profile vs [DMAPP]” value [3] is reported as “uncompetitive substrate inhibition by DMAPP” and the Km [3] is reported as 4.4 ± 0.3 mM. The kcat [3] was 1.2 ± 0.1, the Ki [3] was 18 ± 1 mM and the S.A. [2] was 770 ± 40 nmol/mg/min. The “Variant S.A./WT S.A.” value [2] was 1.6 and the “specific activity compared to WT isoprene synthase, in words” value [2] was “increased specific activity; also recorded: greater than the WT isoprene synthase but less than the β isoprene synthase variant”.

B4: SPC: P. alba MEA G491S L494P T536C (+) TEV; pDW112, SEQ ID NO: 91 (protein)
chain: B1 chain with N453A, G491S, L494P, T536C
modifications: TEV site
For B4, the “KM compared to WT isoprene synthase, in words” value [3] was “less than the KM of the WT”, the “rate profile vs [DMAPP]” value [3] was “uncompetitive substrate inhibition by DMAPP” and the Km [3] was 3.5 ± 0.8 mM. For the same molecule, the kcat [3] was 1.5 ± 0.4, the Ki [3] was 25 ± 21 mM and the S.A. [2] was 630 ± 40 nmol/mg/min. For the same molecule, the “Variant S.A./WT S.A.” value [2] was 1.3 and the “specific activity compared to WT isoprene synthase, in words” value [2] was “increased specific activity; also recorded: greater than the WT isoprene synthase but less than the β isoprene synthase variant”.

B5: D345A: P. alba IspS variant (protein, UniProt Q50L36 38-595, looked up, variant D345A)
Isoprene synthase, …: CSVSTENVSFTETETEARRSANYEPNSWDYDYLLSSDTDESIEVYKDKAKKLEAEVRREINNEKAEFLTLLELIDNVQRLGLGYRFESDIRGALDRFVSSGGFDAVTKTSLHGTALSFRLLRQHGFEVSQEAFSGFKDQNGNFLENLKEDIKAILSLYEASFLALEGENILDEAKVFAISHLKELSEEKIGKELAEQVNHALELPLHRRTQRLEAVWSIEAYRKKEDANQVLLELAILDYNMIQSVYQRDLRETSRWWRRVGLATKLHFARDRLIESFYWAVGVAFEPQYSDCRNSVAKMFSFVTIIADIYDVYGTLDELELFTDAVERWDVNAINDLPDYMKLCFLALYNTINEIAYDNLKDKGENILPYLTKAWADLCNAFLQEAKWLYNKSTPTFDDYFGNAWKSSSGPLQLVFAYFAVVQNIKKEEIENLQKYHDTISRPSHIFRLCNDLASASAEIARGETANSVSCYMRTKGISEELATESVMNLIDETWKKMNKEKLGGSLFAKPFVETAINLARQSHCTYHNGDAHTSPDELTRKRVLSVITEPILPFER
Work on B5 yielded a performance index [1] of 0.50.

B6: D345W: P. alba IspS variant (protein, UniProt Q50L36 38-595, looked up, variant D345W)
Isoprene synthase, …: B5 Isoprene synthase, … with A308W
For B6, the performance index [1] was 0.46.

B7: D345C: P. alba IspS variant (protein, UniProt Q50L36 38-595, looked up, variant D345C)
Isoprene synthase, …: B5 Isoprene synthase, … with A308C
For B7, the performance index [1] was 0.43.

B8: D345M: P. alba IspS variant (protein, UniProt Q50L36 38-595, looked up, variant D345M)
Isoprene synthase, …: B5 Isoprene synthase, … with A308M
In the case of B8, the performance index [1] is reported as 0.43.

B9: D345S: P. alba IspS variant (protein, UniProt Q50L36 38-595, looked up, variant D345S)
Isoprene synthase, …: B5 Isoprene synthase, … with A308S
B9 showed a performance index [1] of 0.41.

— patent US9175313B2, “Three-dimensional structure of isoprene synthase and its use thereof for generating variants” (Danisco US Inc., priority 2009, dated 2015)
